We go through two molecules from PMC11754801, “The molecular basis of Human FN3K mediated phosphorylation of glycated substrates” (Nature Communications, 2025).

In series [1] the target is Full-length (FL) wild-type human (Hs) FN3K, purified from insect cells (human) (UniProt Q9H479). The series is described as follows: SEC; preparative gel filtration during purification from Sf9 cells; HiLoad 16/60 Superdex 75; 10 mM HEPES pH 7.5, 200 mM NaCl, 0.5 mM TCEP; monomeric and dimeric peaks. For orientation: Size exclusion chromatography separates by hydrodynamic size, large species first.

Series [2] deals with the molecule itself. In words: crystal structure; HsFN3KΔ crystals, space group P212121, two molecules in the asymmetric unit; apo and soaked with nucleotides and DMF.

For orientation: stoichiometry N means a count of units in the complex or per binding partner. On to “Full-length (FL) wild-type human (Hs) FN3K, purified from insect cells (from UniProt Q9H479 1-309) (enzyme)”, for which, in series [1], the stoichiometry N is 2.

B1: HsFN3KΔ (human FN3K with internal loop truncation: amino acids 117-138 replaced with a GSS linker) (enzyme)
chain: MEQLLRAELRTATLRAFGGPGAGCISEGRAYDTDAGPVFVKVNRRTQARQMFEGEVASLEALRSTGLVRVPRPMKVIDLPGGGAAFVMEHLKMKSLSSQASKLGEQMADLHLYNQKGSSYVDKFGFHTVTCCGFIPQVNEWQDDWPTFFARHRLQAQLDLIEKDYADREARELWSRLQVKIPDLFCGLEIVPALLHGDLWSGNVAEDDVGPIIYDPASFYGHSEFELAIALMFGGFPRSFFTAYHRKIPKAPGFDQRLLLYQLFNYLNHWNHFGREYRSPSLGTMRRLLK
modifications: intermolecular disulfide between Cys24 of each protomer
notes: human FN3K, Gene ID 64122, residues before the truncated loop (117-138); linker that replaces amino acids 117-138; human FN3K, Gene ID 64122, residues after the truncated loop (117-138); Two molecules in the asymmetric unit, domain-swapped dimer; also called apo-HsFN3K; source: E. coli Rosetta 2 (DE3), purified (Ni-NTA, cation exchange, TEV cleavage, SEC); not shown: His6, N-terminal, cleaved
With B1, the binding result in series [2] is recorded as “binds”.
